According to paper PMC6930692, “Superior Treg-Expanding Properties of a Novel Dual-Acting Cytokine Fusion Protein” (Frontiers in Pharmacology, 2019):

Tests used:
[1] = target: the molecule itself; assay: SDS-PAGE under non-reducing conditions; 2 µg purified fusion protein, 8% SDS-PAGE with and without 2-ME, Coomassie staining; disulfide-linked dimer
mouse TNFR2-Fc [2] = target: T1, mouse TNFR2-Fc (mouse, UniProt P25119 23-258); assay: quartz crystal microbalance; TNFR2-Fc chemically immobilised on a carboxyl sensor chip at high density (270 Hz); PBST (PBS, 0.1% Tween 20) pH 7.4, 37°C; analytes 2 to 32 nM; Kd = koff/kon assuming 1:1 binding; conditions: both partners purified
T1 construct: mouse TNF receptor 2 (TNFR2) as an Fc fusion protein; neither the source of the protein nor the kind of Fc is told; Also used here as the TNFR2 of the functional rows (BV-2 cells, T cells, sTNFR2); also called mTNFR2-Fc
T1 sequence (looked up): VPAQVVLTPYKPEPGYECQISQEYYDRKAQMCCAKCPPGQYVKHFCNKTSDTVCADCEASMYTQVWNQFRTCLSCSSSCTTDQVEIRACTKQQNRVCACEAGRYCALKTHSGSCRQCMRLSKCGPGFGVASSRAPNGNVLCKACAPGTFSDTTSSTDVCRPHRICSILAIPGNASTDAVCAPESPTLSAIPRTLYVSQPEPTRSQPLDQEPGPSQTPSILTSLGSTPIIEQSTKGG

mouse TNFR2-Fc [3] = target: T1, mouse TNFR2-Fc; assay: ELISA; mouse TNFR1-Fc or TNFR2-Fc coated at 1 µg/ml in PBS; fusion proteins in 2% skim milk powder in PBS, 1 h at RT; detected with anti-TNF (HP8001) or anti-his-tag antibody and HRP-conjugated secondary antibody; conditions: both partners purified
mouse TNFR1-Fc = target: T2, mouse TNFR1-Fc (mouse, UniProt P25118 30-212); assay: as above; conditions: both partners purified
T2 construct: mouse TNF receptor 1 (TNFR1) as an Fc fusion protein; neither the source of the protein nor the kind of Fc is told; Also used here as the TNFR1 of the L929 functional rows; also called mTNFR1-Fc
T2 sequence (looked up): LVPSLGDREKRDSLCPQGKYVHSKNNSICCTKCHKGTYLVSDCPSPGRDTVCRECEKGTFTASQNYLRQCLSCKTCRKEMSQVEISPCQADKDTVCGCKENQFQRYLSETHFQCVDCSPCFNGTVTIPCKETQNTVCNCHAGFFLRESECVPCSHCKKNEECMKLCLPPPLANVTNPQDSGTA

B1: IL2-EHD2-sc-mTNFR2 (ligand)
chain: APTSSSTSSSTAEAQQQQQQQQQQQQHLEQLLMDLQELLSRMENYRNLKLPRMLTFKFYLPKQATELKDLQCLEDELGPLRHVLDLTQSKSFQLEDAENFISNIRVTVVKLKGSDNTFECQFDDESATVVDFLRRWIAFCQSIISTSPQPTVKILQSSCDGGGHFPPTIQLLCLVSGYTPGTINITWLEDGQVMDVDLSTASTTQEGELASTQSELTLSQKHWLSDRTYTCQVTYQGHTFEDSTKKCAPVAHVVANHQVEEQLEWLSQRANALLANGMDLKDNQLVVPADGLYLVYSQVLFKGQGCPDYVLLTHTVSRFAISYQEKVNLLSAVKSPCPKDTPEGAELKPWYEPIYLGGVFQLEKGDQLSAEVNLPKYLNFRESGQVYFGVIALPVAHVVANHQVEEQLEWLSQRANALLANGMDLKDNQLVVPADGLYLVYSQVLFKGQGCPDYVLLTHTVSRFAISYQEKVNLLSAVKSPCPKDTPEGAELKPWYEPIYLGGVFQLEKGDQLSAEVNLPKYLNFRESGQVYFGVIALPVAHVVANHQVEEQLEWLSQRANALLANGMDLKDNQLVVPADGLYLVYSQVLFKGQGCPDYVLLTHTVSRFAISYQEKVNLLSAVKSPCPKDTPEGAELKPWYEPIYLGGVFQLEKGDQLSAEVNLPKYLNFRESGQVYFGVIAL
stoichiometry N [1]: 2 | Kd (mouse TNFR2-Fc [2]): 890 pM | kon (mouse TNFR2-Fc [2]): 589000 M⁻¹ s⁻¹ | EC50 (mouse TNFR2-Fc [3]): 53 pM

B2: soluble recombinant mouse TNF (ligand, UniProt P06804 80-235, looked up)
chain: LRSSSQNSSDKPVAHVVANHQVEEQLEWLSQRANALLANGMDLKDNQLVVPADGLYLVYSQVLFKGQGCPDYVLLTHTVSRFAISYQEKVNLLSAVKSPCPKDTPEGAELKPWYEPIYLGGVFQLEKGDQLSAEVNLPKYLDFAESGQVYFGVIAL
notes: soluble recombinant mouse tumor necrosis factor (TNF), wild type; Positive control; also called sTNF; wild-type soluble TNF
binding result (mouse TNFR1-Fc): binds

B3: EHD2-sc-mTNFR2 (ligand)
chain: PTVKILQSSCDGGGHFPPTIQLLCLVSGYTPGTINITWLEDGQVMDVDLSTASTTQEGELASTQSELTLSQKHWLSDRTYTCQVTYQGHTFEDSTKKCAPVAHVVANHQVEEQLEWLSQRANALLANGMDLKDNQLVVPADGLYLVYSQVLFKGQGCPDYVLLTHTVSRFAISYQEKVNLLSAVKSPCPKDTPEGAELKPWYEPIYLGGVFQLEKGDQLSAEVNLPKYLNFRESGQVYFGVIALPVAHVVANHQVEEQLEWLSQRANALLANGMDLKDNQLVVPADGLYLVYSQVLFKGQGCPDYVLLTHTVSRFAISYQEKVNLLSAVKSPCPKDTPEGAELKPWYEPIYLGGVFQLEKGDQLSAEVNLPKYLNFRESGQVYFGVIALPVAHVVANHQVEEQLEWLSQRANALLANGMDLKDNQLVVPADGLYLVYSQVLFKGQGCPDYVLLTHTVSRFAISYQEKVNLLSAVKSPCPKDTPEGAELKPWYEPIYLGGVFQLEKGDQLSAEVNLPKYLNFRESGQVYFGVIAL
stoichiometry N [1]: 2 | Kd (mouse TNFR2-Fc [2]): 120 pM | kon (mouse TNFR2-Fc [2]): 1.2e+06 M⁻¹ s⁻¹ | EC50 (mouse TNFR2-Fc [3]): 31 pM
